Test results taken from the RNAGym collection of RNA variant scans (doi:10.7554/elife.80360).

B1: Twister Ribozyme (parent)
chain: AACACUGCCAAUGCCGGUCCCAAGCCCGGAUAAAAGUGGAGGGGGCGG

Variants of: B1
Assay: self-cleavage, relative activity (ratio to wild type); higher = more cleavage; co-transcriptional

Variant | self-cleavage
C25A G38C | 0.126
C25A G38A | 0.0977
C26G C46A | 0.153
C26G C46G | 0.218
G24A G48U | 0.0761
G24A G48A | 0.121
G24A G48C | 0.112
C25G A30G | 0.625
C25G A30U | 0.31
G24A G43C | 0.107
G24A G43A | 0.102
G24U C27U | 0.13
C26G G41A | 0.128
C26A G48C | 0.434
C26A G48A | 0.304
C26A G48U | 0.355
A23U G48A | 0.389
A23U G48U | 0.439
A23U G48C | 0.48
C25A U37A | 0.106
C25A U37G | 0.0674
C26G G38A | 0.0967
C26G G38U | 0.0977
C25A A40G | 0.0786

Variant | self-cleavage
C25A A40C | 0.114
A23G G42C | 0.176
G24C G36U | 0.0983
G24C C27A | 0.121
G24C C27G | 0.134
C25G C46G | 0.223
C25G C46A | 0.148
C26A A30G | 0.348
A23U G47C | 0.213
A23U G47A | 0.245
C25A C26G | 0.0788
A23G G47U | 0.17
A23U G45A | 0.391
C25A A34G | 0.1
C25A A34U | 0.0738
A23U A30G | 0.506
A23U A30U | 0.501
G24U C26A | 0.0928
G24U C26G | 0.0895
G24U C26U | 0.122
G24U A32U | 0.0649
G24U A32G | 0.113
C26G G48U | 0.146
C26G G48C | 0.229

Variant | self-cleavage
G24C A35C | 0.0752
C26A U31G | 0.691
G24U G38C | 0.103
C26A G44A | 0.562
C26A G44U | 0.456
G24A C26G | 0.0568
G24A C26A | 0.123
A23U C26A | 0.234
A23U C26U | 0.153
A23U A32U | 0.494
A23U A32C | 0.464
G24U A30C | 0.0633
G24A C46G | 0.0598
C26G A30C | 0.0641
C26G A30U | 0.295
G24U A40G | 0.0745
G24A A33G | 0.097
G24A A33C | 0.0756
C26A G28A | 0.168
C25G G39C | 0.109
C25G G39U | 0.121
C25A A35G | 0.0612
C25A A35C | 0.141
C25A A35U | 0.135

Variant | self-cleavage
A23U A34G | 0.0731
A23U A34C | 0.0966
C25A G36C | 0.0709
C25G A33C | 0.227
C25G A33U | 0.246
G24A G47C | 0.11
C25G G36C | 0.0714
C25G G36A | 0.103
G24C G42C | 0.0931
G24C G42U | 0.0759
G24C G42A | 0.105
G24A A35G | 0.0812
G24U G29A | 0.127
C25U G28C | 0.412
C25U G28U | 0.724
C25U A34U | 0.633
C26G U31C | 0.165
C26G U31A | 0.427
G24C U37A | 0.107
G24A A34G | 0.0576
C25G G42U | 0.112
C25A U31G | 0.127
C25A U31C | 0.138
C25U G47A | 0.663

Variant | self-cleavage
C25U G47C | 0.248
C25A A33C | 0.0788
C25U A35U | 0.764
C25U A35G | 0.46
C25U U31A | 0.666
C25U U31G | 0.627
A23G G38U | 0.236
A23G G38A | 0.194
A23U C25G | 0.0583
C26A A35G | 0.219
C26A A35U | 0.732
C25G G41U | 0.133
C25G G41C | 0.133
G24A U37A | 0.0684
C25U G38A | 0.581
C25U C26U | 0.132
C25U C26G | 0.131
C25U G41U | 0.198
C25U G41A | 0.194
G24A G44C | 0.0736
G24A G44A | 0.101
C26G G28A | 0.101
G24C G47A | 0.0965
G24C G47C | 0.0946

Variant | self-cleavage
C26A G47U | 0.144
A23G G45C | 0.181
A23G G45U | 0.158
G24U G47A | 0.094
G24U G47U | 0.0704
G24A G29C | 0.0767
G24A A40C | 0.105
C25U G44U | 0.809
C25U G44A | 0.811
C26A A33U | 0.534
G24U C46U | 0.0749
G24U C46A | 0.0884
C25G G38C | 0.229
G24U G43C | 0.076
G24A G39A | 0.106
G24A G39U | 0.0747
C26G A40U | 0.12
C26G A40C | 0.113
G24C G29C | 0.104
C25U A33C | 0.791
G24U G48U | 0.0921
G24U G48A | 0.0944
C25U G39A | 0.141
C25A G42C | 0.115

Variant | self-cleavage
C25G C26U | 0.0513
C25G C26G | 0.0826
A23G G41C | 0.138
G24A A32C | 0.0703
C25A G45C | 0.0975
C25A G45A | 0.0857
C25G A32U | 0.19
C25U G43C | 0.102
C25U G43A | 0.151
C25G A34G | 0.124
A23U G24U | 0.0593
C25U A40G | 0.121
G24C A33U | 0.0768
G24C A33C | 0.146
C25A C46U | 0.104
C25A C46G | 0.0534
C25A C46A | 0.07
G24C C26G | 0.0413
C25U A32C | 0.903
C25U A32G | 0.804
C25G C27U | 0.136
C25G C27G | 0.0774
G24U G28C | 0.0992
G24U G28A | 0.0754

Variant | self-cleavage
C26G G45U | 0.156
G24U A35C | 0.133
G24U A35U | 0.175
C26U A34U | 0.124
C26U A34C | 0.133
G24U A33C | 0.142
G24U A33G | 0.104
G24U A33U | 0.121
G24C G44C | 0.0955
G24C G44A | 0.0864
C26A G41A | 0.101
C26A G41C | 0.124
C26A G41U | 0.154
A23U A40C | 0.103
C25U G42A | 0.148
C25U G42C | 0.154
C25U G42U | 0.0953
C26G A34C | 0.0761
C26A C27A | 0.173
C26A G38C | 0.395
C26G G29C | 0.134
C26G G29A | 0.132
C26G G29U | 0.0569
C25U G36A | 0.263

Variant | self-cleavage
G24C G28U | 0.0961
G24C G28A | 0.0981
G24C G28C | 0.135
C26A G42U | 0.109
A23U G41U | 0.137
A23U G41A | 0.126
A23U G41C | 0.0988
G24U G36C | 0.0879
G24U G36A | 0.124
C25U G45U | 0.592
C25U G45A | 0.587
C25A G29U | 0.24
C25A G29A | 0.308
C25A G29C | 0.0958
G24U U37C | 0.0947
G24U U37G | 0.092
G24C A34C | 0.0955
G24C A34U | 0.0578
C26G G44C | 0.149
G24A C25G | 0.0958
G24A G42A | 0.0855
G24C G48A | 0.0988
G24C G48C | 0.116
G24C G48U | 0.0846

Variant | self-cleavage
C26G G39A | 0.0939
G24U G39U | 0.0828
G24A U31A | 0.106
G24A U31C | 0.0777
A23U A33U | 0.307
C25A A30G | 0.233
C25A A30C | 0.0625
A23G G48A | 0.327
A23G G48U | 0.354
A23G G48C | 0.516
C25A G28A | 0.166
G24A G38U | 0.126
C25A C27A | 0.0772
C25G G43U | 0.133
A23G U37C | 0.142
G24U G45C | 0.0947
G24U G45U | 0.091
G24U G45A | 0.0796
A23U U31A | 0.502
A23U U31C | 0.682
C25U U37G | 0.332
A23U G36C | 0.12
C26A G39C | 0.0938
C25U C27A | 0.509

Variant | self-cleavage
C25U C27G | 0.101
C25U C27U | 0.74
G24A G36A | 0.0947
G24A G36U | 0.0791
C26A A32G | 0.636
C26G G43U | 0.138
C26A U37G | 0.17
C26A U37A | 0.118
G24A G45A | 0.122
C25G G28A | 0.346
C25G G28U | 0.259
A23U G44A | 0.679
A23U G44U | 0.484
C26G A32C | 0.141
C26G A32G | 0.316
C25G G44U | 0.197
C25G G44C | 0.248
G24U U31A | 0.113
G24C G45C | 0.0828
G24C G45A | 0.0924
C25A A32G | 0.0602
C25A A32U | 0.078
G24U G42A | 0.0906
G24U G42C | 0.0781

Variant | self-cleavage
G24C G41A | 0.109
A23G G43U | 0.0895
A23G G43A | 0.0981
G24A G41U | 0.082
G24A G41C | 0.0854
C25G U31G | 0.393
G24C A40U | 0.0978
C25A G47C | 0.0869
C25A G47U | 0.0657
G24C U31A | 0.0517
C25U A30C | 0.53
C25A G48C | 0.137
C26G A33G | 0.154
C26G A33U | 0.135
C25A G41A | 0.074
C25A G41C | 0.106
G24C G39A | 0.0888
G24C G39U | 0.0664
G24C C25U | 0.114
C26G G36C | 0.0652
G24U C25G | 0.104
G24U C25U | 0.0725
G24U C25A | 0.115
C25G G29A | 0.564

Variant | self-cleavage
C25A G39U | 0.115
C25A G39A | 0.0801
C25A G39C | 0.0833
C26U A40C | 0.131
G24A C27U | 0.106
C26U A30U | 0.556
G24U A34U | 0.116
C26G C27U | 0.0811
G24A G28A | 0.0708
C26A A34G | 0.156
C26A A34C | 0.0918
C26A A34U | 0.177
A23U G29A | 0.285
A23U G29U | 0.315
A23U G29C | 0.0484
A23U G43C | 0.146
C25G U37C | 0.102
G24C C46G | 0.105
G24C C46U | 0.126
C25U G48U | 0.813
C26A A40U | 0.107
C26A A40C | 0.119
G24C G43U | 0.0968
G24C G43C | 0.0497

Variant | self-cleavage
C26U A33C | 0.203
C26U A33G | 0.17
C26U A33U | 0.266
C26G G42U | 0.13
C25G A35U | 0.299
C26G U37C | 0.0957
C26G U37G | 0.115
C26G U37A | 0.126
C26G A35U | 0.497
C26A G36A | 0.0875
C26A C46A | 0.338
A23G G44C | 0.508
G24U G41A | 0.0908
G24U G41C | 0.0917
A23G G39A | 0.143
C26A G45C | 0.123
C25G G48U | 0.21
C25G G48A | 0.193
C25G G48C | 0.167
A23U G39U | 0.119
A23U C27G | 0.0875
A23U C27A | 0.0759
